The text below walks through data of paper PMC7802242, “The nuclear lamina is a hub for the nuclear function of Jacob” (Molecular Brain, 2021).

For one test, the target named is T1, untagged LaminB1 (human, UniProt P20700 1-586).
T1 construct: Lamin B1, human, subcloned from mTagRFP-hLaminB1 into the Intein-pMXB10 vector between NdeI and XhoI; Cloning through the XhoI site may leave a few vector residues at the C-terminus after the intein is cut off (surmise); also called recombinant LaminB1; LaminB1(PMXB10); source: E. coli SHuffle (C3026), purified (chitin resin, released with 50 mM DTT)
T1 sequence (looked up): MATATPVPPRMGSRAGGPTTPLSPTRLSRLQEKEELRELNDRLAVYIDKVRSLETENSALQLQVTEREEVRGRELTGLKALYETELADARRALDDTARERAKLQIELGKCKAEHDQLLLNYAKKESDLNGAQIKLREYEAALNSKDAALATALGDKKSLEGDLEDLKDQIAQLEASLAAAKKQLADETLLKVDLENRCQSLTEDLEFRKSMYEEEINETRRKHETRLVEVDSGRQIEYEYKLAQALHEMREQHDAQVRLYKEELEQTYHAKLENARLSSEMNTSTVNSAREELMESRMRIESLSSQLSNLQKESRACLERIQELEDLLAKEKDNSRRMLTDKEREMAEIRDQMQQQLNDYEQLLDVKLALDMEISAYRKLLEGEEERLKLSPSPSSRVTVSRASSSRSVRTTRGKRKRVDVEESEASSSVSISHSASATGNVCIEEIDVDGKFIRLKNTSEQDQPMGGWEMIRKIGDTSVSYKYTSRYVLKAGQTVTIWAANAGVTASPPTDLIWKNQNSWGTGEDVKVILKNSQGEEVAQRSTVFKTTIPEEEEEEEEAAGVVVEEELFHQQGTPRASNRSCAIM
Briefly: pull-down; amylose-MBP matrix alone or coupled with MBP-Jacob proteins, washed in 20 mM Tris pH 7.5, 1 mM DTT, 3 mM EDTA, 100 mM NaCl, 0.3% TritonX-100; incubated with 20 μg of untagged LaminB1 or untagged CRM1 overnight at 4 °C; Western blot. The conditions noted are these: both partners purified. (In western blotting, separated proteins are transferred to a membrane and probed.)

The next test has as its target T2, untagged-CRM1 (human, UniProt O14980 1-1071).
T2 construct: CRM1 (Exportin 1), human, subcloned from 3xFLAG-hCRM1 into the Intein-pMXB10 vector between NdeI and XhoI; Cloning through the XhoI site may leave a few vector residues at the C-terminus after the intein is cut off (surmise); also called recombinant CRM1; CRM1 (PMXB10); source: E. coli ExpressLysY/Iq, purified (chitin resin, released with 50 mM DTT)
The description is as above. The conditions noted are these: both partners purified.

T2 sequence (O14980 whole entry): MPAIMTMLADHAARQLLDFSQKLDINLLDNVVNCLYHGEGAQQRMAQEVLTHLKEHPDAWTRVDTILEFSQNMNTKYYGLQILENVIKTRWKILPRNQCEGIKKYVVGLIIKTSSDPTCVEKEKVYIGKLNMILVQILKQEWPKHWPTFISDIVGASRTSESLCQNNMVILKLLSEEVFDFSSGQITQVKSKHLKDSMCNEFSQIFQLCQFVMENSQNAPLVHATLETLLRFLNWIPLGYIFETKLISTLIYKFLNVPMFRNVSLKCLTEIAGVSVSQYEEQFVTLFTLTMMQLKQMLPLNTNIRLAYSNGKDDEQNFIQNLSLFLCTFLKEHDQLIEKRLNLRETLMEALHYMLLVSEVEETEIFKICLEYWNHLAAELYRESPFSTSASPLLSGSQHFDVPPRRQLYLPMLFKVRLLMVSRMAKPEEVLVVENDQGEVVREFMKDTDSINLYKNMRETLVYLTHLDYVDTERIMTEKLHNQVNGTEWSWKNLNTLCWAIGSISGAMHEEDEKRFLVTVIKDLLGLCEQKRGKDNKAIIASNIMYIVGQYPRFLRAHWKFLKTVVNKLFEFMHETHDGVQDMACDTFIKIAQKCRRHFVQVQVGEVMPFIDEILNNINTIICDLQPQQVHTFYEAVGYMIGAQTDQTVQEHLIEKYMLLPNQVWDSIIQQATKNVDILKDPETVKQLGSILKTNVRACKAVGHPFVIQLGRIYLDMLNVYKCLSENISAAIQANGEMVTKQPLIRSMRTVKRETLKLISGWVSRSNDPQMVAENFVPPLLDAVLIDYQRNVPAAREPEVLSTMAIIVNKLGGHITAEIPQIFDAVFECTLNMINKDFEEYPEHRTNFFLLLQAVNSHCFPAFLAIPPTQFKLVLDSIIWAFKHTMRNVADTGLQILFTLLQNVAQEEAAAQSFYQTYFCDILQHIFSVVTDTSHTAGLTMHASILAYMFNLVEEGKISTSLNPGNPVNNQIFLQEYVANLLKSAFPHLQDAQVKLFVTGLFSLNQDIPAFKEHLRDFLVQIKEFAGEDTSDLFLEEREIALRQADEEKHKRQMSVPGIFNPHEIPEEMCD

B1: MBP-45-532-Jacob (domain or fragment, rat, UniProt Q9EPI6 45-532, looked up)
chain: DHLLADAYSGHEGSPEMQPAPHNKRRLSLVSNGRYEGSISDEAVSGKTATEGPQPRVYTISREPALLPGSEAEAIELAVVKGRRQRERHPHHHSQPLRASPGSSREDISRPCQSWAGSRQGSKECPGCAKLVPGPSPRAFGLEQPPLPEASGRHKKLERMYSVDGVSDDVPIRTWFPKENPFSFQTATTTMQAISVFRGYAERKRRKRENDSASVIQRNFRKHLRMVGSRRVKAQTFAERRERSFSRSWSDPTPMKADTSHDSRDSSDLQSSHCTLDEACEDLDWDTEKGLEATACDTEGFLPPKVMLISSKVPKAEYIPTIIRRDDPSIIPILYDHEHATFEDILEEIEKKLNIYHKGAKIWKMLIFCQGGPGHLYLLKNKVATFAKVEKEEDMIHFWKRLSRLMSKVNPEPNVIHIMGCYILGNPNGEKLFQNLRTLMTPYKVTFESPLELSAQGKQMIETYFDFRLYRLWKSRQHSKLLDFDDVL
notes: Jacob (Nsmf), residues 45-532, truncated for protein stability; also called amylose-MBP-45-532-Jacob; Jacob fused to MBP; source: E. coli SHuffle (C3026), pMAL vector, coupled to amylose resin
For B1, the binding result with untagged LaminB1 and with untagged-CRM1 was “binds” each time.
